Results on two molecules are retold here after US20250215101A1, “DR5 Agonist and PLK1 Inhibitor or CDK Inhibitor Combination Therapy” (Inhibrx Biosciences, Inc., priority 2022, published 2025).

Test [1] has as its system panel of colorectal cancer cell lines and panel of pancreatic cell lines. Put plainly: Cytotoxicity screen onvansertib +/- 1 nM INBRX-109, summary over the additional panels. It counts as cell-based. The conditions noted are these: combination of INBRX-109 and onvansertib. The source says:
The results for a panel of colorectal cancer cell lines are shown in Table 3 and FIGS. 4-6, and the results for a panel of pancreatic cell lines are shown in Table 4 and FIGS. 7 and 8.

In test [2] the test system is cancer cell lines HT-29, LS174T, SW620, SW837, SW1463, and LS411N. Put plainly: Cytotoxicity screen INBRX-109 + onvansertib, summary over the cell lines. The format is cell-based. The conditions noted are these: combination of INBRX-109 and onvansertib. Here is the method:
Monolayer cultures of each cell line were harvested for compound screening as detailed below.
Onvansertib: A 10 mg stock of onvansertib was purchased from Selleck Chemicals and was resuspended to 10 mM in DMSO. This was then aliquoted and stored at −80° C. Aliquots were thawed immediately prior to dilution and use in the assay. A 500× master plate of serial dilutions (6-point 5-fold dilutions in 100% DMSO starting at 500 μM, plus a DMSO only control) was prepared and mixed gently with a pipette. To generate a 5× working dilution plate of onvansertib, a 1:100 dilution was performed from the 500× plate into complete media (EMEM).
Also on day 2, test and control articles were added.
On day 4, viability measurements were taken. […] Data was graphed in GraphPad Prism 9.

For test [3], the system named is H-EMC-SS. Briefly: Cell viability (CellTiter-Glo) cytotoxicity assay, INBRX-109 x CDK9 or MCL-1 inhibitor matrix, 48 h, chondrosarcoma line. On the technique in general: In ATP-based viability assays light output follows the ATP content of the culture.
Procedure: (§1) On day 1, cells were seeded as follows. Monolayer cultures of each cell line (chondrosarcoma: CAL-78, OUMS-27, SW1353, and H-EMC-SS; colorectal cancer: SW620; and synovial sarcoma: HS-SY-II) were harvested for compound screening. Culture medium was aspirated, and the cells were washed once with PBS. Accutase was added and flasks were incubated at 37° C. until cells became detached. An equal volume of complete medium was added to quench the Accutase, and the cells were then pipetted up and down several times to generate a homogenous single cell suspension. The density and viability of cells was determined by Trypan Blue using a TC20 Automated Cell Counter. Experimental cells were resuspended to a concentration of 0.17×10^6/mL in Eagle's Minimum Essential Medium (EMEM)/10% FBS/Anti-Anti media (complete EMEM) and seeded in the inner wells of 384-well luminescence plates at 15 mL/well (2,500/well final). Each cell line was plated in duplicate on separate plates. Outer wells were filled with 50 mL PBS, then plates were incubated in a humidified temperature-controlled 37° C. tissue culture incubator at 5% CO2 overnight for 16 hours.
(§2) These test articles were added, in duplicate, to each cell line. The plates were then centrifuged at 400×g for 1 minute, then incubated in a 37° C. humidity-controlled tissue culture incubator (5% CO2) for 48 hours.
(§3) After incubation with the test articles, viability measurements were taken, briefly. Plates were equilibrated to room temperature for 10 minutes, then 25 μL of CellTiter-Glo 2.0® was added to each well. Plates were spun for 1 minute at 400×g, then covered and incubated in the dark for 10 minutes at room temperature. Any visible bubbles were removed with 100% ethanol vapor, then luminescence (RLU) was read on the Spectra Max M5e plate reader, using the 384-well opaque plate setting and SoftMax® Pro v5.4 software with an integration time of 50 milliseconds. To determine the effect of test articles on cell viability, raw RLU values were exported to Excel and percent survival was calculated as a percentage of vehicle control (0.5% DMSO in EMEM), where the vehicle control is set at 100%. Data was graphed in GraphPad Prism 9.
Test [4] relates to SW1353. The test is described as above.
Procedure: as §1, §2, §3
The test system of test [5] is OUMS-27. Described as above.
Procedure: as §1, §2, §3
For test [6], the system named is HS-SY-II. Briefly: Cell viability (CellTiter-Glo) cytotoxicity assay, INBRX-109 x CDK9 or MCL-1 inhibitor matrix, 48 h, synovial sarcoma line.
Procedure: as §1, §2, §3
In test [7] the test system is several cancerous cell lines. Put plainly: Previous cytotoxicity assays with several cancerous cell lines. It counts as cell-based.
Test [8] has as its system CAL-78. Put plainly: Cell viability (CellTiter-Glo) cytotoxicity assay, INBRX-109 x CDK9 or MCL-1 inhibitor matrix, 48 h, chondrosarcoma line.
Procedure: as §1, §2, §3
[9] abbreviates: INBRX-109 + 125 nM flavopiridol.

Turning to `CN1CCN(c2ccc(OC(F)(F)F)c(Nc3ncc4c(n3)-c3c(c(C(N)=O)nn3CCO)CC4)c2)CC1` [Onvansertib], the “cell killing by the combination compared to either agent alone” value in test [1] is reported as “increased cell killing”. For the same molecule, the “cell killing by the combination” value in test [2] is listed as “increased cell killing on every cancer cell line tested”.

B1: INBRX-109: DR5-binding polypeptide consisting of SEQ ID NO: 7 (two VHH domains and an Fc region); DR5 agonist (protein)
chain: EVQLLESGGGEVQPGGSLRLSCAASGLTFPNYGMGWFRQAPGKEREFVSAIYWSGGTVYYAESVKGRFTISRDNAKNTLYLQMSSLRAEDTAVYYCAVTIRGAATQTWKYDYWGQGTLVTVKPGGSGGSEVQLLESGGGEVQPGGSLRLSCAASGLTFPNYGMGWFRQAPGKEREFVSAIYWSGGTVYYAESVKGRFTISRDNAKNTLYLQMSSLRAEDTAVYYCAVTIRGAATQTWKYDYWGQGTLVTVKPGGGGDKTHTCPPCPAPGGPSVFLFPPKPKDTLMISRTPEVTCVVVDVSHEDPEVKFNWYVDGVEVHNAKTKPREEQYNSTYRVVSVLTVLHQDWLNGKEYKCKVSNKALPAPIEKTISKAKGQPREPQVYTLPPSRDELTKNQVSLTCLVKGFYPSDIAVEWESNGQPENNYKTTPPVLDSDGSFFLYSKLTVDKSRWQQGNVFSCSVMHEALHNHYTQKSLSLSPGK
modifications: INBRX-109
notes: DR5 agonist
As to B1, the EC50 came to 2.33 pM in test [3] (INBRX-109 + 125 nM enitociclib); 1.46 pM in test [3] (setting [9]); 2.59 pM in test [3] (INBRX-109 + 2 μM AZD-5991); 2.2 pM in test [3] (INBRX-109 only (Table 5)); 1.96 pM in test [3] (INBRX-109 only (Table 7)); 9.25 pM in test [3] (INBRX-109 only (Table 9)). Besides, the EC50 in test [3] (INBRX-109 only (Table 11)) is 9.26 pM; in test [3] (INBRX-109 only (Table 13)) it was 10.2 pM; in test [4] (INBRX-109 + 125 nM enitociclib), 1.05 pM; in test [4] (setting [9]) it was 2.81 pM; in test [4] (INBRX-109 + 2 μM AZD-5991) it was 5.33 pM; in test [4] (INBRX-109 only (Table 5)) it was “unstable”. In addition, the EC50 result in test [4] (INBRX-109 only (Table 7)) is “unstable”; in test [4] (INBRX-109 only (Table 9)) it was “Unstable”; in test [4] (INBRX-109 only (Table 11)) it was 9.1 pM; in test [4] (INBRX-109 only (Table 13)) it was “Unstable”; in test [5] (INBRX-109 + 2 μM AZD-5991), 8.71 pM; in test [5] (INBRX-109 only (Table 5)), 982 pM. The EC50 is greater than 4090 pM in test [5] (INBRX-109 only (Table 7)); “Unstable” in test [5] (INBRX-109 only (Table 11)); 8870 pM in test [5] (INBRX-109 only (Table 13)); 646 pM in test [6] (INBRX-109 + 125 nM enitociclib); 1.93 pM in test [6] (setting [9]); “Unstable” in test [6] (INBRX-109 + 2 μM AZD-5991). The EC50 entry is “Unstable” in test [6] (INBRX-109 only (Table 9)); 11 pM in test [6] (INBRX-109 only (Table 11)); 3.93 pM in test [8] (INBRX-109 + 2 μM AZD-5991); greater than 3600 pM in test [8] (INBRX-109 only (Table 5)); “unstable” in test [8] (INBRX-109 only (Table 7)); 17.2 pM in test [8] (INBRX-109 only (Table 9)). The same molecule registered an EC50 in test [8] (INBRX-109 only (Table 11)) of 28.9 pM. In test [7], this molecule came in with a maximally efficacious concentration of 1 nM.

Usually EC50 stands for the concentration giving half of the maximal effect.
